Results: patent US20240417437A1, “Linker Polypeptides” (Trutino Biosciences Inc., priority 2021, published 2024)

Tests used:
[1] = test system: EMT6 breast cancer syngeneic model; test: Real-time whole-body imaging of Dylight 650 labelled IL-2 fusion proteins in tumors; type: in vivo; conditions: 8 mg/kg IV once, each time-point over 96 hours, EMT6 tumor-bearing BALB/c mice
Description: The levels of IL-2 fusion proteins present in tumors in vivo were assessed by utilizing fluorescently labelled proteins and real-time whole-body imaging. Non-cleavable Construct GGG and Construct DD were conjugated to Dylight 650 probe according to the manufacturer's protocol (Dylight 650 Antibody labeling kit, ThermoFisher). […] BALB/c mice were subcutaneously inoculated with EMT6 breast cancer syngeneic model, and when the average tumor volume reached 240 mm^3, animals were randomized into 3 groups based on tumor volumes (n=2 mice per treatment group).
Following administration of a single dose of the labeled IL-2 fusion proteins to tumor-bearing mice, fluorescent images (excitation 640/emission 680 consistent with Dylight 650 probe ex/em spectra) were captured over 96 hours on an IVIS system (PerkinElmer, IVIS Lumina Series III) and are shown in FIG. 5A. The fluorescence intensity in tumor areas was quantified across the groups, average background tumor fluorescence (group 1) was subtracted from group 2 and 3 values at each time-point, and data were normalized to the initial fluorescence intensity of same amount of each labeled protein. […] This signifies next generation retention linker Construct DD accumulated and was retained in tumors at 2-fold higher levels compared to IL-2 fusion protein Construct GGG, lacking any targeting sequence.

[2] = test system: B16F10 melanoma cells; test: B16F10 melanoma tumor growth inhibition study; type: in vivo; conditions: 20 mg/kg IV Q3D, 5 doses, B16F10 in C57BL/6 mice
Description: C57BL/6 mice were subcutaneously inoculated with B16F10 melanoma cells and when the average tumor volume reached on average 70-90 mm^3, animals were randomized into 6 groups based on tumor volumes (n=8 mice per treatment group). Mice were dosed intravenously every 3 days (Q3D) for a total of 5 doses according to Table 7.
Tumor volumes were measured twice a week for the duration of the study. […] On day 14, animals were sacrificed, and tissues and blood (processed to serum) were collected 24 hours post final dose (dose #5) and stored at −80° C. until further testing.

[3] = test system: B16F10 melanoma cells; test: Tumor lysate levels of full-length fusion protein (ELISA), IL-2 and IFN-γ (Luminex), B16F10 study; type: in vivo, C57BL/6 mice; conditions: tumor lysate 24 hours after last dose
Description: An ELISA assay was developed to detect and quantify prodrug fusion proteins comprising IL-2 and IL-2Ra moieties. Wells of a 96-well plate were coated overnight with 100 μL of a rat anti-mouse IL-2 monoclonal antibody (JES6-1A12; ThermoFisher) at […] in PBS. After washing, wells are blocked with TBS/0.05% Tween 20/1% BSA, then fusion proteins and/or unknown biological samples were added for 1 hour at room temperature. After washing, an anti-mouse IL-2Ra biotin-labelled detection antibody (BAF2438, R&D systems) was added and binding was detected using Ultra Strepavidin HRP (ThermoFisher). The ELISA plate was developed by adding the chromogenic tetramethylbenzidine substrate (Ultra TMB, ThermoFisher). The reaction was stopped by addition of 0.5 M H2SO4, and the absorbance was read at 450-650 nm.
The levels of full-length IL-2-IL-2Ra fusion proteins, IL-2, and IFN-7 were quantified in tumor samples collected during a pre-clinical efficacy study comparing a panel of retention linker IL-2 fusion drugs (see Example 10).
Tumors (n=3 per group) were collected 24 hours after the last dose injection, flash frozen, and stored at −80° C. until further processing. Tumor lysates were generated using tissue extraction reagent (ThermoFisher) supplemented with protease and phosphatase inhibitors. Standard techniques and protein concentrations were determined using the BCA assay (Pierce). […]

[4] = Link_TGS6; cited from earlier work

B1: Construct DD: mIL2-2x(GHHPH)-MMPscr-2x(G4S)-mIL2Ra(1-215)-muIgG1Fc; pH heparin (protein)
chain: APTSSSTSSSTAEAQQQQQQQQQQQQHLEQLLMDLQELLSRMENYRNLKLPRMLTFKFYLPKQATELKDLQCLEDELGPLRHVLDLTQSKSFQLEDAENFISNIRVTVVKLKGSDNTFECQFDDESATVVDFLRRWIAFCQSIISTSPQGHHPHGHHPHGVRLGPGGGGGSGGGGSELCLYDPPEVPNATFKALSYKNGTILNCECKRGFRRLKELVYMRCLGNSWSSNCQCTSNSHDKSRKQVTAQLEHQKEQQTTTDMQKPTQSMHQENLTGHCREPPPWKHEDSKRIYHFVEGQSVHYECIPGYKALQRGPAISICKMKCGKTGWTQPQLTCVDEREHHRFLASEESQGSRNSSPESETSCPITTTDFPQPTETTAMTETFVLTMEYKGCKPCICTVPEVSSVFIFPPKPKDVLTITLTPKVTCVVVDISKDDPEVQFSWFVDDVEVHTAQTQPREEQFNSTFRSVSELPIMHQDWLNGKEFKCRVNSAAFPAPIEKTISKTKGRPKAPQVYTIPPPKEQMAKDKVSLTCMITDFFPEDITVEWQWNGQPAENYKNTQPIMDTDGSYFVYSKLNVQKSNWEAGNTFTCSVLHEGLHNHHTEKSLSHSPGK
modifications: Synthetic: Construct DD
notes: mIL2-2x(GHHPH)-MMPscr-2x(G4S)-mIL2Ra(1-215)-muIgG1Fc; pH heparin
- tumor-associated fluorescence / level retained in tumors, fold higher compared to Construct GGG [1]: roughly 2 fold

B2: Construct III: mIL2-VRIQRKKEKMKET-MMPcs1-GGSKLWVLPKGS-mIL2Ra-muIgG1Fc; hep/col IV (protein)
chain: APTSSSTSSSTAEAQQQQQQQQQQQQHLEQLLMDLQELLSRMENYRNLKLPRMLTFKFYLPKQATELKDLQCLEDELGPLRHVLDLTQSKSFQLEDAENFISNIRVTVVKLKGSDNTFECQFDDESATVVDFLRRWIAFCQSIISTSPQVRIQRKKEKMKETGPLGVRGGGSKLWVLPKGSELCLYDPPEVPNATFKALSYKNGTILNCECKRGFRRLKELVYMRCLGNSWSSNCQCTSNSHDKSRKQVTAQLEHQKEQQTTTDMQKPTQSMHQENLTGHCREPPPWKHEDSKRIYHFVEGQSVHYECIPGYKALQRGPAISICKMKCGKTGWTQPQLTCVDEREHHRFLASEESQGSRNSSPESETSCPITTTDFPQPTETTAMTETFVLTMEYKGCKPCICTVPEVSSVFIFPPKPKDVLTITLTPKVTCVVVDISKDDPEVQFSWFVDDVEVHTAQTQPREEQFNSTFRSVSELPIMHQDWLNGKEFKCRVNSAAFPAPIEKTISKTKGRPKAPQVYTIPPPKEQMAKDKVSLTCMITDFFPEDITVEWQWNGQPAENYKNTQPIMDTDGSYFVYSKLNVQKSNWEAGNTFTCSVLHEGLHNHHTEKSLSHSPGK
modifications: Synthetic: Construct III
notes: mIL2-…-MMPcs1-…-mIL2Ra-muIgG1Fc; hep/col IV
- tumor growth inhibition (TGI) [2]: 83.5%
- levels of IFN-7 in tumors [3]: enhanced
- IL-2 intratumoral levels ([3]; compared to other arms): highest

B3: 641 (protein)
chain: GVYHREARSGKYKLTYAEAKAVCEFEGGHLATYKGLEAARKIGFHVCAAGWMAKGRVGYPIVKPGPPNCGFGKTGIIDYGIRLNRSERWDAYCYNPHA
modifications: Synthetic: hyaluronic acid; pH dependent (Link_TGS6)
- Note 2: pH dependence of binding to hyaluronic acid [4]: binds better at lower pH
